According to PMC4617720, “Antigenic Characterization of the HCMV gH/gL/gO and Pentamer Cell Entry Complexes Reveals Binding Sites for Potently Neutralizing Human Antibodies” (PLoS Pathogens, 2015):

B2: HCMV UL130 (natural protein)
chain: SPWSTLTANQNPSPPWSKLTYSKPHDAATFYCPFLYPSPPRSPLQFSGFQRVSTGPECRNETLYLLYNREGQTLVERSSTWVKKVIWYLSGRNQTILQRMPRTASKPSDGNVQISVEDAKIFGAHMVPKQTKLLRFVVNDGTRYQMCVMKLESWAHVFRDYSVSFQVRLTFTEANNQTYTFCTHPNLIV
notes: source: 293EBNA cells, transfected with individual plasmids encoding each subunit; not shown: Strep-tag II, C-terminal, kept

Key:
Conditions in all cases: both partners purified
HCMV UL130 = molecular target: B2; assay: cross-linking; purified unbound Pentamer (with UL131A-K27R), 36 pmol, 600-fold excess of DSSG-d0/d6 (links lysines up to 25 Å apart), 10 mM HEPES pH 7.5, 300 mM NaCl, RT, 30 min; cross-linked peptides identified by LC-MS/MS (xQuest)
[1] = molecular target: T1, HCMV glycoprotein H (gH), soluble, terminated at amino acid 715 (human cytomegalovirus (HCMV), Merlin …, UniProt Q6SW67 24-715); assay: as above
T1 construct: source: 293EBNA cells, transfected with individual plasmids encoding each subunit
T1 sequence: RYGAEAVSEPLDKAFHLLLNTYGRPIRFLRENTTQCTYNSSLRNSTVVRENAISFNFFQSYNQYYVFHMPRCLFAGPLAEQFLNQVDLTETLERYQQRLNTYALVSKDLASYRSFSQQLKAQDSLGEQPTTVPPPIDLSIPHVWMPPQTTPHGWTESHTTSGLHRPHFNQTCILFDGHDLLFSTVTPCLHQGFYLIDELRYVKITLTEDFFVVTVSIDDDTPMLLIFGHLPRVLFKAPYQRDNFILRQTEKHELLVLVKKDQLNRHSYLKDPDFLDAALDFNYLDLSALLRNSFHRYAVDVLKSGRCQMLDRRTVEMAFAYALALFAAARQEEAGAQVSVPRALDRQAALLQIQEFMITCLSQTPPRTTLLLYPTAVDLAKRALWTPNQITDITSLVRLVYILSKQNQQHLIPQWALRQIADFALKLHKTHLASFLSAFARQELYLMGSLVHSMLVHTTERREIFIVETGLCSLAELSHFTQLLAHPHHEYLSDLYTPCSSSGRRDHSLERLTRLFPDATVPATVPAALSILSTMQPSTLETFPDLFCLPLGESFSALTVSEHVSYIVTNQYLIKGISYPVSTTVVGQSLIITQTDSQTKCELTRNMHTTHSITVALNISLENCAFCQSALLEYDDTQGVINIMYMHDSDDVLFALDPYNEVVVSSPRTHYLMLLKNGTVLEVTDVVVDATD

[2] = molecular target: T1, HCMV glycoprotein H (gH), soluble, …; assay: non-reducing SDS-PAGE with western blot; purified Pentamer, non-boiled and non-reduced (-/-), blotted with rabbit polyclonal anti-Pentamer antibody

B1: HCMV UL131A-K27R (natural protein)
chain: QCQRETAERNDYYRVPHYWDACSRALPDQTRYKYVEQLVDLTLNYHYDASHGLDNFDVLKRINVTEVSLLISDFRRQNRRGGTNKRTTFNAAGSLAPHARSLEFSVRLFAN
notes: also called UL131A-K27R mutation; source: 293EBNA cells, transfected with individual plasmids encoding each subunit
- binding result (HCMV UL130): binds

Binder: B2
- binding result [1]: binds

B3: HCMV glycoprotein L (gL) (natural protein)
chain: AAVSVAPTAAEKVPAECPELTRRCLLGEVFEGDKYESWLRPLVNVTGRDGPLSQLIRYRPVTPEAANSVLLDEAFLDTLALLYNNPDQLRALLTLLSSDTAPRWMTVMRGYSECGDGSPAVYTCVDDLCRGYDLTRLSYGRSIFTEHVLGFELVPPSLFNVVVAIRNEATRTNRAVRLPVSTAAAPEGITLFYGLYNAVKEFCLRHQLDPPLLRHLDKYYAGLPPELKQTRVNLPAHSRYGPQAVDAR
notes: source: 293EBNA cells, transfected with individual plasmids encoding each subunit
- binding result [2]: binds
